In assay [1] the target is SemiSWEET. Nature of the assay: native MS.
The target of assay [2] is SemiSWEET. Nature of the assay: native MS. This is another data set of the same source.

Read-outs that look alike come from different tables or passages of the source.

In the case of SemiSWEET (natural protein), the stoichiometry N in assay [1] and in assay [2] was 2 throughout.

(Values after article PMC10932607.)
